# Data reported in article PMC11790763, “A Peptide Motif Covering Splice Site B in Neuroligin-1 Binds to Aβ and Acts as a Neprilysin Inhibitor” (Molecular Neurobiology, 2024).
# What was measured:
# recombinant rat NL1 = biological target: T1, recombinant rat NL1 (Rattus norvegicus, UniProt Q62765); assay: Surface plasmon resonance binding to immobilized NL1; conditions: SPR, Biacore 2000, 25 °C, HBS-P pH 7.4 + 3 mM CaCl2; analyte injected over NL1 immobilized on CM4 chip, 20 μl/min; 1:1 Langmuir model; four independent experiments
# T1 construct: the extracellular domain of NL1 was immobilized on a sensor chip; purchased R&D systems (Abingdon, UK)
# Description: Binding analysis was performed on a Biacore 2000 SPR biosensor (GE Healthcare) at 25 °C using HBS-P (10 mM HEPES, pH 7.4, 150 mM NaCl, 0.005% [v/v] Surfactant P20) supplemented with 3 mM CaCl2 as a running buffer. Approximately 2000 Resonance Units (RU) of NL1 was immobilized on a CM4 sensor chip at a flow rate of 5 μl/min by amine coupling. Binding to serially diluted recombinant NX1β, used as a positive control, was performed as previously described. Aβ1-42 was dissolved in anhydrous DMSO to a stock concentration of 3.21 mM followed by serial dilution in running buffer. Peptide was injected into the chip, and binding experiments were performed at a flow rate of 20 μl/min, followed by regeneration of sensor chip with 10 μl of 15 mM NaOH and 150 mM NaCl. After subtraction of blank control, the binding curves were analyzed based on a nonlinear curve fitting using a 1:1 Langmuir binding model and the software package BIAevaluation 4 (GE Healthcare). The apparent equilibrium constant (KD) was calculated as kd/ka, in which ka and kd are the apparent association and dissociation constants, respectively.
# [1] = biological target: Biotinylated amyloid-β peptide 1-40 (Aβ1-40); assay: ELISA; competitive ELISA: NL1 (3.125 nM) coated on the plate; biotinylated Aβ1-40 (400 nM; Aβ40-1 as negative control) premixed 30 min with serially diluted NL1 or NL1-derived peptides; 4 h at room temperature; streptavidin-HRP; IC50 interpreted as KD
# T1 sequence (Q62765 46-697 limits assumed): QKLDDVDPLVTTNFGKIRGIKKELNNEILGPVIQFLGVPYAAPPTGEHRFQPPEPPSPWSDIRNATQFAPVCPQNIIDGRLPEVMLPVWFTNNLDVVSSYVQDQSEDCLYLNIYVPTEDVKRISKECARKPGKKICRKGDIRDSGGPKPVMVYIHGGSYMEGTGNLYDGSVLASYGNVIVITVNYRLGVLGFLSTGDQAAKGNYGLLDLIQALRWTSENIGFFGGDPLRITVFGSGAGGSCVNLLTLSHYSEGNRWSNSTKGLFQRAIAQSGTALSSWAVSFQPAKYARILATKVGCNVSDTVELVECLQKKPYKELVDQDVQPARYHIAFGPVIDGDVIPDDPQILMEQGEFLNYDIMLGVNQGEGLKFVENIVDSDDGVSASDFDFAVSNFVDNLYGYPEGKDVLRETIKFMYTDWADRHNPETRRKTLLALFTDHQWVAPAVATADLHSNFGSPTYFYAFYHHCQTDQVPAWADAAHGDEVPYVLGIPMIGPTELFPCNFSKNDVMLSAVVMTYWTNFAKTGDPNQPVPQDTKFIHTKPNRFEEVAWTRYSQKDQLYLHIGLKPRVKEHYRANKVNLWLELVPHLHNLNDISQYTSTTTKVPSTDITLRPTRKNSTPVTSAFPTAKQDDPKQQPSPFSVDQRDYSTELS
Kd (recombinant rat NL1),Kd [1],Substance
6.64 nM,–,"NX1β: recombinant neurexin-1β, positive control for binding to NL1"
–,19.9 nM,"Recombinant rat neuroligin-1 (NL1), soluble extracellular domain (from UniProt Q62765 46-697) (domain or fragment)"
